Source: patent publication US20210340217A1, “NOVEL PEPTIDES AND COMBINATION OF PEPTIDES FOR USE IN IMMUNOTHERAPY AGAINST OVARIAN CANCER AND OTHER CANCERS” (Immatics Biotechnologies GmbH, priority 2017, published 2021)

Biological target: HLA-B*07:02 (Homo sapiens, UniProt P01889)
Assay: MHC binding assay (UV-ligand exchange, beta2m ELISA)
Conditions: peptide exchange yield
Description: Candidate peptides for T cell based therapies according to the present invention were further tested for their MHC binding capacity (affinity). The individual peptide-MHC complexes were produced by UV-ligand exchange, where a UV-sensitive peptide is cleaved upon UV-irradiation, and exchanged with the peptide of interest as analyzed. Only peptide candidates that can effectively bind and stabilize the peptide-receptive MHC molecules prevent dissociation of the MHC complexes. To determine the yield of the exchange reaction, an ELISA was performed based on the detection of the light chain (β2m) of stabilized MHC complexes. The assay was performed as generally described in Rodenko et al. (Rodenko et al., 2006).
96 well MAXISorp plates (NUNC) were coated over night with 2 ug/ml streptavidin in PBS at room temperature, washed 4× and blocked for 1 h at 37° C. in 2% BSA containing blocking buffer. Refolded HLA-A*02:01/MLA-001 monomers served as standards, covering the range of 15-500 ng/ml. Peptide-MHC monomers of the UV-exchange reaction were diluted 100-fold in blocking buffer. Samples were incubated for 1 h at 37° C., washed four times, incubated with 2 ug/ml HRP conjugated anti-β2m for 1h at 37° C., washed again and detected with TMB solution that is stopped with […]. Absorption was measured at 450 nm. Candidate peptides that show a high exchange yield (preferably higher than 50%, most preferred higher than 75%) are generally preferred for a generation and production of antibodies or fragments thereof, and/or T cell receptors or fragments thereof, as they show sufficient avidity to the MHC molecules and prevent dissociation of the MHC complexes.

Substance | Peptide exchange
141 (SPMTSLLTSGL; listed as Homo sapiens) [compound 141] | “+++” (>50 = +++)
142 (TPGLRETSI; listed as Homo sapiens) [compound 142] | “++” (>20% = ++)
143 (SPAMTSTSF; listed as Homo sapiens) [compound 143] | “++” (>20% = ++)
144 (SPSPVSSTL; listed as Homo sapiens) [compound 144] | “+++” (>50 = +++)
145 (SPSSPMSTF; listed as Homo sapiens) [compound 145] | “++” (>20% = ++)
146 (IPRPEVQAL; listed as Homo sapiens) [compound 146] | “+++” (>50 = +++)
147 (APRWFPQPTVV; listed as Homo sapiens) [compound 147] | “+++” (>50 = +++)
148 (KPYGGSGPL; listed as Homo sapiens) [compound 148] | “+++” (>50 = +++)
149 (GPREALSRL; listed as Homo sapiens) [compound 149] | “+++” (>50 = +++)
293 (VPDSGATATAY; listed as Homo sapiens) [compound 293] | “++” (>20% = ++)
294 (YPLRGSSIF; listed as Homo sapiens) [compound 294] | “+++” (>50 = +++)
295 (YPLRGSSIFGL; listed as Homo sapiens) [compound 295] | “+++” (>50 = +++)
296 (YPLRGSSI; listed as Homo sapiens) [compound 296] | “++” (>20% = ++)
297 (TVREASGLL; listed as Homo sapiens) [compound 297] | “+++” (>50 = +++)
298 (YPTEHVQF; listed as Homo sapiens) [compound 298] | “++” (>20% = ++)
299 (HPGSSALHY; listed as Homo sapiens) [compound 299] | “++” (>20% = ++)
300 (IPMAAVKQAL; listed as Homo sapiens) [compound 300] | “+++” (>50 = +++)
301 (SPRRSPRISF; listed as Homo sapiens) [compound 301] | “++” (>20% = ++)
302 (RVEEVRALL; listed as Homo sapiens) [compound 302] | “+++” (>50 = +++)

Substance | Peptide exchange
303 (LPMWKVTAF; listed as Homo sapiens) [compound 303] | “+++” (>50 = +++)
304 (LPRPGAVL; listed as Homo sapiens) [compound 304] | “+++” (>50 = +++)
305 (TPWAESSTKF; listed as Homo sapiens) [compound 305] | “++” (>20% = ++)
306 (APVIFSHSA; listed as Homo sapiens) [compound 306] | “++” (>20% = ++)
307 (LPYGPGSEAAAF; listed as Homo sapiens) [compound 307] | “+++” (>50 = +++)
308 (YPEGAAYEF; listed as Homo sapiens) [compound 308] | “++” (>20% = ++)
309 (FPQSQYPQY; listed as Homo sapiens) [compound 309] | “++++” (>75% = ++++)
311 (RPLFYVVSL; listed as Homo sapiens) [compound 311] | “++” (>20% = ++)
312 (LPYFREFSM; listed as Homo sapiens) [compound 312] | “+++” (>50 = +++)
313 (KVKSDRSVF; listed as Homo sapiens) [compound 313] | “+” (>10% = +)
314 (VPDQPHPEI; listed as Homo sapiens) [compound 314] | “+++” (>50 = +++)
315 (SPRENFPDTL; listed as Homo sapiens) [compound 315] | “+++” (>50 = +++)
316 (EPKTATVL; listed as Homo sapiens) [compound 316] | “++” (>20% = ++)
317 (FPFQPGSV; listed as Homo sapiens) [compound 317] | “+++” (>50 = +++)
318 (FPNRLNLEA; listed as Homo sapiens) [compound 318] | “+++” (>50 = +++)
319 (SPAEPSVYATL; listed as Homo sapiens) [compound 319] | “++++” (>75% = ++++)
320 (FPMSPVTSV; listed as Homo sapiens) [compound 320] | “+++” (>50 = +++)
321 (SPMDTFLLI; listed as Homo sapiens) [compound 321] | “++” (>20% = ++)
322 (SPDPSKHLL; listed as Homo sapiens) [compound 322] | “++” (>20% = ++)

Now from value to substance:

Peptide exchange | Substance
“+++” (>50 = +++) | 323 (RPMPNLRSV; listed as Homo sapiens) [compound 323]
“++” (>20% = ++) | 324 (VPYRVVGL; listed as Homo sapiens) [compound 324]
“+++” (>50 = +++) | 325 (GPRNAQRVL; listed as Homo sapiens) [compound 325]
“++” (>20% = ++) | 326 (VPSEIDAAF; listed as Homo sapiens) [compound 326]
“+++” (>50 = +++) | 327 (SPLPVTSLI; listed as Homo sapiens) [compound 327]
“++” (>20% = ++) | 328 (EPVTSSLPNF; listed as Homo sapiens) [compound 328]
“+++” (>50 = +++) | 329 (FPAMTESGGMIL; listed as Homo sapiens) [compound 329]
“++” (>20% = ++) | 330 (FPFVTGSTEM; listed as Homo sapiens) [compound 330]
“+++” (>50 = +++) | 331 (FPHPEMTTSM; listed as Homo sapiens) [compound 331]
“+++” (>50 = +++) | 332 (FPHSEMTTL; listed as Homo sapiens) [compound 332]
“+++” (>50 = +++) | 333 (FPHSEMTTVM; listed as Homo sapiens) [compound 333]
“+++” (>50 = +++) | 334 (FPYSEVTTL; listed as Homo sapiens) [compound 334]
“++” (>20% = ++) | 335 (HPDPVGPGL; listed as Homo sapiens) [compound 335]
“++” (>20% = ++) | 336 (HPKTESATPAAY; listed as Homo sapiens) [compound 336]
“+++” (>50 = +++) | 337 (HPVETSSAL; listed as Homo sapiens) [compound 337]
“++” (>20% = ++) | 338 (HVTKTQATF; listed as Homo sapiens) [compound 338]
“+++” (>50 = +++) | 339 (LPAGTTGSLVF; listed as Homo sapiens) [compound 339]
“++” (>20% = ++) | 340 (LPEISTRTM; listed as Homo sapiens) [compound 340]

Peptide exchange | Substance
“+++” (>50 = +++) | 341 (LPLDTSTTL; listed as Homo sapiens) [compound 341]
“+++” (>50 = +++) | 342 (LPLGTSMTF; listed as Homo sapiens) [compound 342]
“++” (>20% = ++) | 343 (LPSVSGVKTTF; listed as Homo sapiens) [compound 343]
“+++” (>50 = +++) | 344 (LPTQTTSSL; listed as Homo sapiens) [compound 344]
“++” (>20% = ++) | 345 (LPTSESLVSF; listed as Homo sapiens) [compound 345]
“+++” (>50 = +++) | 346 (LPWDTSTTLF; listed as Homo sapiens) [compound 346]
“++” (>20% = ++) | 347 (MPLTTGSQGM; listed as Homo sapiens) [compound 347]
“+++” (>50 = +++) | 348 (MPNSAIPFSM; listed as Homo sapiens) [compound 348]
“+++” (>50 = +++) | 349 (MPSLSEAMTSF; listed as Homo sapiens) [compound 349]
“+++” (>50 = +++) | 350 (NPSSTTTEF; listed as Homo sapiens) [compound 350]
“++” (>20% = ++) | 351 (NVLTSTPAF; listed as Homo sapiens) [compound 351]
“+++” (>50 = +++) | 352 (SPAETSTNM; listed as Homo sapiens) [compound 352]
“+++” (>50 = +++) | 353 (SPAMTTPSL; listed as Homo sapiens) [compound 353]
“+++” (>50 = +++) | 354 (SPLPVTSLL; listed as Homo sapiens) [compound 354]
“+++” (>50 = +++) | 355 (SPLVTSHIM; listed as Homo sapiens) [compound 355]
“+++” (>50 = +++) | 356 (SPNEFYFTV; listed as Homo sapiens) [compound 356]
“+++” (>50 = +++) | 357 (SPSPVPTTL; listed as Homo sapiens) [compound 357]
